Numbering of substitutions follows the chain as printed. Blank lines part the entries; values can stand above or below the binder they belong to.
How the values were obtained:
[1] = target: T1, monkey Trop2 protein (Sino Biological, #90893-C08H) (monkey, UniProt A0A2K5UE71 27-274); assay: BLI, Octet RED96, AHC sensor
T1 construct: bought protein; also called monkey Trop2 protein antigen (His tag)
T1 sequence: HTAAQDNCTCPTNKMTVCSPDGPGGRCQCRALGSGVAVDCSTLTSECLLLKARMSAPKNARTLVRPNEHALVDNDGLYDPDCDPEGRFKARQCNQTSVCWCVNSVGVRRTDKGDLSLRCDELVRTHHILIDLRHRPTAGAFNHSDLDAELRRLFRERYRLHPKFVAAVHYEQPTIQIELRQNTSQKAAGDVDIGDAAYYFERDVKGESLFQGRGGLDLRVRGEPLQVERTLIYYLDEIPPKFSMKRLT
Outline: (§1)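 Human or monkey Trop2 protein at 200 nM in PBS pH 7.4 with 0.1% BSA and 0.02% Tween 20 was loaded on the sensor. Association used 40 nM antibody for 3 min at 30° C, then dissociation ran 5 min in the same buffer. Signals were recorded in real time; KD, kon and koff were fitted.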

[2] = target: T2, human TROP2 protein (Sino Biological, #10428-H08H) (human, UniProt P09758 27-274); assay: BLI, Octet RED96, AHC sensor
T2 construct: bought protein; also called human Trop2 protein antigen (His tag); not shown: His tag
T2 sequence (looked up): T1 sequence with V36M, E46K, N67S, V204I
Outline: as §1

human Trop2 on cells [3] = target: T3, human Trop2 on cells (human, UniProt P09758 27-323); assay: cell-based or functional assay
T3 sequence (looked up): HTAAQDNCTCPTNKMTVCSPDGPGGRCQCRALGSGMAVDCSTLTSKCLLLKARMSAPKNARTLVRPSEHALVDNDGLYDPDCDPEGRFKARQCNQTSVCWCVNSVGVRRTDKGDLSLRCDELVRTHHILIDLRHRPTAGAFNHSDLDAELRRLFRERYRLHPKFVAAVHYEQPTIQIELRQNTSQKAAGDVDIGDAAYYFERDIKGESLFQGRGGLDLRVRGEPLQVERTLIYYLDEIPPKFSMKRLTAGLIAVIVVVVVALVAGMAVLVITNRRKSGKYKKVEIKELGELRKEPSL

[4] = target: T1, monkey Trop2 protein (Sino Biological, …); assay: SPR, Biacore T200, antigen immobilised on CM5 chip
Experimental: (§2) HBS-EP+ (10 mM HEPES, 150 mM NaCl, 3 mM EDTA, and 0.05% P20, pH 7.4, GE Healthcare, BR-1001-88) was used as a running buffer throughout the test. […] Data were analyzed using Biacore T200 (GE Healthcare, T200 model, #BIAC-B20-03) Evaluation 3.1 software.

[5] = target: T2, human TROP2 protein (Sino Biological, …); assay: SPR, Biacore T200, antigen immobilised on CM5 chip
Experimental: as §2

[6] = target: T2, human TROP2 protein (Sino Biological, …); assay: BLI epitope binning (Octet), biotinylated human Trop2 on SA sensor; row = primary antibody; competitor (secondary antibody, column): PR001165
Experimental: The biotinylated mixture after the incubation was washed three times with PBS and a Zeba centrifugal desalting column (Thermo Fisher, #89882) to remove excess biotin. The biotinylated Trop2 protein was captured by an SA sensor (Pall ForteBio, #18-5019) with the loading baseline set at 0.3 nm. The sensor was immersed in a well of assay buffer containing 50 nM primary antibody for 300 s. […] The binding assay was performed by comparing the binding of the secondary antibody to Trop2 in the presence of the primary antibody to the blocking of the primary antibody itself.

human Trop2 on cells [7] = target: T3, human Trop2 on cells; assay: cell-based or functional assay; remark: listed apart in the source
human Trop2 on cells [8] = target: T3, human Trop2 on cells; assay: flow cytometry on BxPC-3 tumor cells
Experimental: BxPC-3 tumor cells (the Cell Bank of the Chinese Academy of Sciences, #TCHu 12) were digested with 3 mL of TrypLE, and the digestion was stopped with 7 mL of the corresponding medium. […] The cell solution was centrifuged, and the cells were washed once with PBS+[…] buffer. […] The cells were washed once with PBS+0.50% BSA. The cells were incubated at 4° C. for 1 h in the dark with 100 μL of Alexa Fluor 488 goat anti-human IgG (Life technologies, #A-11013) diluted at 1:1000, and washed twice with PBS+0.50% BSA. The cells were resuspended in 200 μL of PBS+0.50% BSA. The suspension was centrifuged at 4° C. for 5 min at 2000 rpm and tested using a FACS verse flow cytometer or NovoCyte flow cytometer (ACEA Biosciences). All procedures were performed on ice.

Kd [1]: 0.137 nM | Response [1]: 0.322 | Kd [2]: 0.199 nM | Response [2]: 0.349 | ADCC (donor 1152#) EC50(nM), BxPC-3 + PBMC, LDH release (human Trop2 on cells [3]): 0.0391 nM | ADCC (donor 2153#) EC50(nM), BxPC-3 + PBMC, LDH release (human Trop2 on cells [3]): 0.08 nM | Kd [4]: 0.619 nM | Kd [5]: 0.601 nM | Inhibition rate (%) [6]: 92% | ADCP (Donor A1925144#) EC50(nM), BxPC-3 + macrophages (human Trop2 on cells [7]): 0.125 nM | ADCP (Donor A1925144#) Maximum phagocytosis % (human Trop2 on cells [7]): 14.8% | ADCP (Donor A1925144#) Minimum phagocytosis % (human Trop2 on cells [7]): 1.72% | ADCP (Donor A19143143#) EC50(nM), BxPC-3 + macrophages (human Trop2 on cells [7]): 0.208 nM | ADCP (Donor A19143143#) Maximum phagocytosis % (human Trop2 on cells [7]): 44.8% | ADCP (Donor A19143143#) Minimum phagocytosis % (human Trop2 on cells [7]): 1.04% | EC50 (human Trop2 on cells [8]): 2.08 nM | Maximum MFI value (human Trop2 on cells [8]): 8730 MFI
B1: comparative example 2 antibody Tab (hRS7) (antibody, human IgG1, kappa, V domains shown)
VH: QVQLQQSGSELKKPGASVKVSCKASGYTFTNYGMNWVKQAPGQGLKWMGWINTYTGEPTYTDDFKGRFAFSLDTSVSTAYLQISSLKADDTAVYFCARGGFGSSYWYFDVWGQGSLVTVSS
VL: DIQLTQSPSSLSASVGDRVSITCKASQDVSIAVAWYQQKPGKAPKLLIYSASYRYTGVPDRFSGSGSGTDFTLTISSLQPEDFAVYYCQQHYITPLTFGAGTKVEIKR
notes: prepared on the basis of sacituzumab govitecan (ChemPartner, #T07-001); naked antibody
ADCC (donor 1152#) Maximum cell killing % (human Trop2 on cells [3]): 42.1% | ADCC (donor 1152#) Minimum cell killing % (human Trop2 on cells [3]): 4.32% | ADCC (donor 2153#) Maximum cell killing % (human Trop2 on cells [3]): 62.6% | ADCC (donor 2153#) Minimum cell killing % (human Trop2 on cells [3]): 10.2%

Kd [1]: < 0.001 nM | Response [1]: 0.322 | koff [1]: < 1e-07 s⁻¹ | kon [1]: 316000 M⁻¹ s⁻¹ | Kd [2]: < 0.001 nM | Response [2]: 0.324 | koff [2]: < 1e-07 s⁻¹ | kon [2]: 470000 M⁻¹ s⁻¹ | ADCC (donor 1152#) EC50(nM), BxPC-3 + PBMC, LDH release (human Trop2 on cells [3]): 0.02 nM | ADCC (donor 2153#) EC50(nM), BxPC-3 + PBMC, LDH release (human Trop2 on cells [3]): 0.0347 nM | Kd [4]: 0.0856 nM | koff [4]: 0.000137 s⁻¹ | kon [4]: 1.59e+06 M⁻¹ s⁻¹ | Kd [5]: 0.0279 nM | koff [5]: 5.78e-05 s⁻¹ | kon [5]: 2.07e+06 M⁻¹ s⁻¹ | Inhibition rate (%) [6]: 18.5% | ADCP (Donor A1925144#) EC50(nM), BxPC-3 + macrophages (human Trop2 on cells [7]): 0.0311 nM | ADCP (Donor A1925144#) Maximum phagocytosis % (human Trop2 on cells [7]): 9.33% | ADCP (Donor A1925144#) Minimum phagocytosis % (human Trop2 on cells [7]): 2.05% | ADCP (Donor A19143143#) EC50(nM), BxPC-3 + macrophages (human Trop2 on cells [7]): 0.161 nM | ADCP (Donor A19143143#) Maximum phagocytosis % (human Trop2 on cells [7]): 40.2% | ADCP (Donor A19143143#) Minimum phagocytosis % (human Trop2 on cells [7]): 2.04% | EC50 (human Trop2 on cells [8]): 0.716 nM | Maximum MFI value (human Trop2 on cells [8]): 8390 MFI | fold lower EC50 than the reference antibody hRS7 (human Trop2 on cells [8]): ~2 fold
B2: PR001166 (antibody, human IgG1, kappa, V domains shown)
VH: QVQLQESGPGLVKPSETLSLTCAVSGYSISSGYFWAWIRQPPGKGLEWIGSIYHSGRTHYNPSLKSRVIISLDTSKNQFSLKLRSVTAADSAVYYCAREGYASGSYYWGQGTLVTVSS
VL: EIVMTQSPATLSVSPGERATLSCRSSQSVNNYLAWFQQKPGQAPRLLIYDSSTRATGIPARFSGSGSGTEFTLTISSLQSEDFAFYFCQQYENWPLTFGGGTKVEIKR
notes: fully human IgG1/kappa; also called antibody No. (27)
ADCC (donor 1152#) Maximum cell killing % (human Trop2 on cells [3]): 36.5% | ADCC (donor 1152#) Minimum cell killing % (human Trop2 on cells [3]): 3.25% | ADCC (donor 2153#) Maximum cell killing % (human Trop2 on cells [3]): 69.1% | ADCC (donor 2153#) Minimum cell killing % (human Trop2 on cells [3]): 11.9%

— patent US20240067748A1 (NONA BIOSCIENCES SUZHOU, published 2024)
